The source of these data is patent publication EP1073741B1.

“And” between values parts separate entries of the source, which are not always exact repeats. Equal values may be shown once.

Experiment [1] deals with feline CD28, surface expressed on CD28-pSI transfected COS-7 cells (feline). The experiment in a line: cell-cell adhesion assay; calcein-labelled CD80 COS-7 cells on CD28 COS-7 monolayer; microplate fluorimeter.
In experiment [2] the target is feline CD80, surface expressed on feCD80/pSI transfected COS-7 cells (feline). The experiment in a line: competitive cell-cell adhesion assay at 5x10^5 cells; huCTLA-4Ig pre-incubated with CD80 COS-7 cells, then added to CD28 COS-7 monolayer.

With “feline CD80, surface expressed on feCD80/pSI transfected COS-7 cells (ligand)”, in experiment [1], the fold fluorescence against wells with mock transfected adherent cells, at 1x10^6 cells was 5 fold.

As to “huCTLA-4Ig fusion protein (from UniProt P16410 38-161) (Fc fusion)”, in experiment [2], the fold residual fluorescence against wells inhibited with soluble CD80 (close to the mock transfected control) is 2 fold and 3 fold.
